Earlier results as cited in article PMC7490560.
Several values for one entry are separate records, joined by “and”; a condition that tells them apart may be missing. Identical values can stand only once.

Biological target: KEAP1 (Homo sapiens) (UniProt Q14145)
Sequence (Q14145 whole entry): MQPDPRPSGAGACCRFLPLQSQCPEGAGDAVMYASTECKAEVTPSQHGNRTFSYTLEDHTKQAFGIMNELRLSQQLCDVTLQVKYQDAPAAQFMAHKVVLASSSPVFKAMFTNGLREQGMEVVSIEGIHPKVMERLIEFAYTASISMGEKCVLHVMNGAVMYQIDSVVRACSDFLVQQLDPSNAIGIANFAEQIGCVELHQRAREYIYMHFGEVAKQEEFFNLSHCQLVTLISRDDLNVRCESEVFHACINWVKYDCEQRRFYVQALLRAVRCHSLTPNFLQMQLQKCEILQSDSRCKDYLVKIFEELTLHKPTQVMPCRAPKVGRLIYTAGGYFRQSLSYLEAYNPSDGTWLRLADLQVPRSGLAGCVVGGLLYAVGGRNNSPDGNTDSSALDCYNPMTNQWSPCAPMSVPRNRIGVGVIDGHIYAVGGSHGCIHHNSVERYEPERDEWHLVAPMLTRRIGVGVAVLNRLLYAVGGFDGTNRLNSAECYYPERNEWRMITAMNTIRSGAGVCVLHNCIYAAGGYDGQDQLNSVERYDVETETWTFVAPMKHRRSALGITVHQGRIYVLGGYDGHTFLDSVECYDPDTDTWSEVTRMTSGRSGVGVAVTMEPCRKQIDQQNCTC

Chain of NRF2 (Q16236 whole entry): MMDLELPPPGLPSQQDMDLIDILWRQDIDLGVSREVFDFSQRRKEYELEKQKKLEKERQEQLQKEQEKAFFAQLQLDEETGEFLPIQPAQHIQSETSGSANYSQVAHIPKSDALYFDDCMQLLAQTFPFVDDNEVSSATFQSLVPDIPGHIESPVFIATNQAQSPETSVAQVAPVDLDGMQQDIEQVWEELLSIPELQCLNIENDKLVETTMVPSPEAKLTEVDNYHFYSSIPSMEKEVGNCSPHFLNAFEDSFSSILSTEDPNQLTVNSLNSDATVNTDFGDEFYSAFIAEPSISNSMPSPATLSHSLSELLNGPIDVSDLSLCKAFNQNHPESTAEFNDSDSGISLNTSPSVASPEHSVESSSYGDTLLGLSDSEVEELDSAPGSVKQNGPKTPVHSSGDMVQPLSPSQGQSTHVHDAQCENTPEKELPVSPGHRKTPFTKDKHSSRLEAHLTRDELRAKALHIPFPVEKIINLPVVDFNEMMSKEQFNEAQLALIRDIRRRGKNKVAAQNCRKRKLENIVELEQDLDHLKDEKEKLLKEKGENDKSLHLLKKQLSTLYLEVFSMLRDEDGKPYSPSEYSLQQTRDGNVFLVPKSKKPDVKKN

For NRF2 (from UniProt Q16236), the Kd is given as 580 nM and 167 nM.
